We go through four molecules from patent US20210107998A1 (Boehringer Ingelheim, published 2021).

Some results are limits rather than exact numbers.

In assay [1] the target is Recombinant human BAFF trimer (Boehringer Ingelheim Pharmaceuticals, Inc.) (human, UniProt Q9Y275 134-285, limits assumed). Description: cell-based or functional assay.
For assay [2], the target named is Recombinant human BAFF 60mer (Boehringer Ingelheim Pharmaceuticals, Inc.) (human, UniProt Q9Y275 134-285, limits assumed). Description: cell-based or functional assay.
The target of assay [3] is T1, cynomolgus IL-23 (cynomolgus, UniProt H6WS56 20-189). Nature of the assay: SPR (ProteOn XPR36), compound captured on goat anti-human IgG Fc, antigen injected. The procedure:
(§1) SPR experiments were performed on a ProteOn XPR36 instrument (Bio Rad). A GLM chip was preconditioned with sequential injections of 60 sec of 0.5% SDS, 50 mM NaOH, and 100 mM HCl at a flow rate of 30 μl/min both vertical and horizontal directions.
(§2) The preconditioned GLM chip was then activated by an injection of EDC (76.7 mg/ml) and sulfo-NHS (21.7 mg/ml) mixture with ratio of 1:1 in 6 horizontal channels. Goat-anti-human IgG (GAHA) Fc gamma (Invitrogen) at a concentration of 30 μg/ml in 10 mM, pH 5.0 sodium acetate buffer was immobilized to 8,000 resonance units on the activated GLM chip in 6 horizontal channels. The chip was finally deactivated with 1 M ethanolamine HCl in 6 horizontal channels. The prepared GAHA chip was rotated to vertical direction to capture test compounds, over 5 vertical channels and the last channel was used as a column reference. The captured chip was then rotated again to the horizontal direction for binding. […] The dissociation was allowed for 2 hour. The GAHA surface was regenerated using short pulse injection (18 seconds) of 0.85% phosphoric acid (Bio Rad) at a flow rate of 100 μl/min both horizontal and vertical directions after 10 min association and 2 hr dissociation. The regenerated GAHA was ready for another binding cycle.

The target of assay [4] is T2, human BAFF (human, UniProt Q9Y275 134-285, limits assumed).
T2 construct: also called hu BAFF; hBAFF
The description is as above. The procedure:
as §1, §2

In assay [5] the target is T3, cynomolgus BAFF (cynomolgus, UniProt A0A2K5V2X4 134-285).
T3 construct: construct not described
The description is as above. The procedure: as §1, §2

Assay [6] deals with T4, Linked human IL-23 (Boehringer Ingelheim Pharmaceuticals, Inc.) (human, UniProt P29460 23-328).
T4 sequence 1: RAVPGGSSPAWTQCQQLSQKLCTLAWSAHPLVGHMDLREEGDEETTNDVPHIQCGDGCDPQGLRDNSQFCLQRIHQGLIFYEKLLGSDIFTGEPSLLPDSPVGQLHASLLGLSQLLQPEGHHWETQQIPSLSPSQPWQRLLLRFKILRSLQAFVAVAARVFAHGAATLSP
T4 sequence 2: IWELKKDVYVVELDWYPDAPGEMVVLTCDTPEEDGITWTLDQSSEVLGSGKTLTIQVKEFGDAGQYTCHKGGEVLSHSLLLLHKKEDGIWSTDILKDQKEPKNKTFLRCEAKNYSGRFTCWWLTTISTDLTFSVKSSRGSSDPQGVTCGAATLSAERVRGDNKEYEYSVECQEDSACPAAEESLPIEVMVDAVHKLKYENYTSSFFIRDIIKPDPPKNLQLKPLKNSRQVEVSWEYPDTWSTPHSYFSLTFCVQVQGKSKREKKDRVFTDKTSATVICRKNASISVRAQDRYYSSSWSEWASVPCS
Described as above. The method, then: as §1, §2

Assay [7] has as its target T2, human BAFF. Nature of the assay: BLI (Octet RED96, streptavidin tips), compound incubated 48 h at 37 C in whole blood vs kinetic buffer. The procedure:
(§3) A whole blood interference assay was developed on an Octet RED96 to detect the effects of non-specific binding or off-target binding for compounds in the presence of whole blood (WB). The compound solutions in whole blood and 1× kinetic running buffer (1×kb) were incubated at a temperature of 37° C. for 48 hours. Kinetic measurements for the incubated compound samples were performed with an Octet RED96 equipped with streptavidin (SA) biosensor tips (ForteBio, Menlo Park, Calif.) at 27° C. The ratio of the on-rates/binding signals in buffer and whole blood were reported. A ratio <2 was considered to show no interference.
In general terms: In BLI a coated tip is dipped into the sample, and binding shifts an interference pattern.

Assay [8] addresses T5, Recombinant human IL-23 (human, UniProt P29460 23-328).
T5 construct: also called hu IL23
T5 sequence 1: T4 sequence 1
T5 sequence 2: T4 sequence 2
The assay is described as above. The procedure:
as §3

For assay [9], the target named is T5, Recombinant human IL-23. Nature of the assay: cell-based or functional assay.
The target of assay [10] is T1, cynomolgus IL-23. Description: cell-based or functional assay.
Assay [11] concerns the target T5, Recombinant human IL-23. Nature of the assay: cell-based or functional assay. This is another data set of the same source.

B1: Compound F (bispecific antibody, human IgG4 S228P, kappa)
chain 1: DIQMTQSPSSLSASVGDRVTITCKASRDVAIAVAWYQQKPGKVPKLLIYWASTRHTGVPSRFSGSGSRTDFTLTISSLQPEDVADYFCHQYSSYPFTFGSGTKLEIKGGGSGGGGQVQLQQSGAEVKKPGSSVRVSCKASGGTFNNNAINWVRQAPGQGLEWMGGIIPMFGTAKYSQNFQGRVAITADESTGTASMELSSLRSEDTAVYYCARSRDLLLFPHHALSPWGRGTMVTVSSLGGGSGASTKGPSVFPLAPCSRSTSESTAALGCLVKDYFPEPVTVSWNSGALTSGVHTFPAVLQSSGLYSLSSVVTVPSSSLGTKTYTCNVDHKPSNTKVDKRVESKYGPPCPPCPAPEFLGGPSVFLFPPKPKDTLYITREPEVTCVVVDVSQEDPEVQFNWYVDGVEVHNAKTKPREEQFNSTYRVVSVLTVLHQDWLNGKEYKCKVSNKGLPSSIEKTISKAKGQPREPQVYTLPPSQEEMTKNQVSLTCLVKGFYPSDIAVEWESNGQPENNYKTTPPVLDSDGSFFLYSRLTVDKSRWQEGNVFSCSVMHEALHNHYTQKSLSLSLG
chain 2: SSELTQDPAVSVALGQTVRVTCQGDSLRSYYASWYQQKPGQAPVLVIYGKNNRPSGIPDRFSGSSSGNTASLTITGAQAEDEADYYCSSRDSSGNHWVFGGGTELTVLGGGSGGGGQVQLVQSGAEVKKPGSSVKVSCKASGYTFTDQTIHWMRQAPGQGLEWIGYIYPRDDSPKYNENFKGKVTITADKSTSTAYMELSSLRSEDTAVYYCAIPDRSGYAWFIYWGQGTLVTVSSLGGGSGRTVAAPSVFIFPPSDEQLKSGTASVVCLLNNFYPREAKVQWKVDNALQSGNSQESVTEQDSKDSTYSLSSTLTLSKADYEKHKVYACEVTHQGLSSPVTKSFNRGEC
notes: Large chain: IL23A(1) VL - BAFF(1) VH - LGGGSG - IgG4-Pro-YTE; small chain: BAFF(1) VL - IL23A(1) VH - LGGGSG - CL
Take B1: the “IC50, NFkB luciferase reporter, human BAFFR-CHO cells” value in assay [1] is 0.072 nM; in assay [2], 1.3 nM. For the same molecule, the figures for the “IC90, NFkB luciferase reporter, human BAFFR-CHO cells” value in assay [1] and in [2] were 0.293 nM and 7.39 nM, respectively. Also, the Kd in assay [3], in assay [4], in [5] and in assay [6] was less than 0.015 nM throughout. The “Ratio of binding signal in WB/kinetic buffer” value (“Ratio of binding signal” below) in [7] came to 1; in [8], 1.2.

B2: Compound E (bispecific antibody, human IgG1, kappa, L234A L235A)
chain 1: SSELTQDPAVSVALGQTVRVTCQGDSLRSYYASWYQQKPGQAPVLVIYGKNNRPSGIPDRFSGSSSGNTASLTITGAQAEDEADYYCSSRDSSGNHWVFGGGTELTVLGGGSGGGGQVQLVQSGAEVKKPGSSVKVSCKASGYTFTDQTIHWMRQAPGQGLEWIGYIYPRDDSPKYNENFKGKVTITADKSTSTAYMELSSLRSEDTAVYYCAIPDRSGYAWFIYWGQGTLVTVSSLGGGSGASTKGPSVFPLAPSSKSTSGGTAALGCLVKDYFPEPVTVSWNSGALTSGVHTFPAVLQSSGLYSLSSVVTVPSSSLGTQTYICNVNHKPSNTKVDKRVEPKSCDKTHTCPPCPAPEAAGGPSVFLFPPKPKDTLYITREPEVTCVVVDVSHEDPEVKFNWYVDGVEVHNAKTKPREEQYNSTYRVVSVLTVLHQDWLNGKEYKCKVSNKALPAPIEKTISKAKGQPREPQVYTLPPSREEMTKNQVSLTCLVKGFYPSDIAVEWESNGQPENNYKTTPPVLDSDGSFFLYSKLTVDKSRWQQGNVFSCSVMHEALHNHYTQKSLSLSPG
chain 2: DIQMTQSPSSLSASVGDRVTITCKASRDVAIAVAWYQQKPGKVPKLLIYWASTRHTGVPSRFSGSGSRTDFTLTISSLQPEDVADYFCHQYSSYPFTFGSGTKLEIKGGGSGGGGQVQLQQSGAEVKKPGSSVRVSCKASGGTFNNNAINWVRQAPGQGLEWMGGIIPMFGTAKYSQNFQGRVAITADESTGTASMELSSLRSEDTAVYYCARSRDLLLFPHHALSPWGRGTMVTVSSLGGGSGRTVAAPSVFIFPPSDEQLKSGTASVVCLLNNFYPREAKVQWKVDNALQSGNSQESVTEQDSKDSTYSLSSTLTLSKADYEKHKVYACEVTHQGLSSPVTKSFNRGEC
As to B2, the Kd in [3], in assay [4], in assay [5] and in assay [6] was less than 0.015 nM each time. Also, the figures for the “Ratio of binding signal” value in [7] and in [8] were 1 and 1.1, respectively.

B3: Compound C (bispecific antibody, human IgG1, kappa, L234A L235A)
chain 1: DIQMTQSPSSLSASVGDRVTITCKASRDVAIAVAWYQQKPGKVPKLLIYWASTRHTGVPSRFSGSGSRTDFTLTISSLQPEDVADYFCHQYSSYPFTFGSGTKLEIKGGGSGGGGQVQLVQSGAEVKKPGASVKVSCKASGYSFSTFFIHWVRQRPGQGLEWIGRIDPNSGATKYNEKFESKVTLTRDTSISTAYMELSRLRSDDTAVYYCARGEDLLIRTDALDYWGQGTSVTVSSLGGGSGASTKGPSVFPLAPSSKSTSGGTAALGCLVKDYFPEPVTVSWNSGALTSGVHTFPAVLQSSGLYSLSSVVTVPSSSLGTQTYICNVNHKPSNTKVDKRVEPKSCDKTHTCPPCPAPEAAGGPSVFLFPPKPKDTLYITREPEVTCVVVDVSHEDPEVKFNWYVDGVEVHNAKTKPREEQYNSTYRVVSVLTVLHQDWLNGKEYKCKVSNKALPAPIEKTISKAKGQPREPQVYTLPPSREEMTKNQVSLTCLVKGFYPSDIAVEWESNGQPENNYKTTPPVLDSDGSFFLYSKLTVDKSRWQQGNVFSCSVMHEALHNHYTQKSLSLSPG
chain 2: DIQMTQSPSSLSASVGDRVSITCKASQNAGIDVAWFQQKPGKAPKLLIYSKSNRYTGVPSRFSGSGSGTDFTLTISSLQPEDFADYYCLQYRSYPRTFGGGTKLEIKGGGSGGGGQVQLVQSGAEVKKPGSSVKVSCKASGYTFTDQTIHWMRQAPGQGLEWIGYIYPRDDSPKYNENFKGKVTITADKSTSTAYMELSSLRSEDTAVYYCAIPDRSGYAWFIYWGQGTLVTVSSLGGGSGRTVAAPSVFIFPPSDEQLKSGTASVVCLLNNFYPREAKVQWKVDNALQSGNSQESVTEQDSKDSTYSLSSTLTLSKADYEKHKVYACEVTHQGLSSPVTKSFNRGEC
notes: Tetravalent format
On to B3, for which the figures for the “IC50, NFkB luciferase reporter, human BAFFR-CHO cells” value in assay [1] and in [2] were 0.035 nM and 0.006 nM, respectively. Also, the “IC90, NFkB luciferase reporter, human BAFFR-CHO cells” value in [1] amounted to 0.11 nM; in assay [2], 0.014 nM. Besides, in assay [9], the “IC50, STAT3-luciferase reporter in DB lymphoblast B cells” value came to 0.189 nM. Further, the “IC90, STAT3-luciferase reporter in DB lymphoblast B cells” value in assay [9] was found to be 2.33 nM. The results for the “IC50, IL-23-induced mouse IL-17 release from mouse splenocytes” value (“IC50, IL-23-induced mouse IL-17 release” for short) in assay [10] and in assay [11] were 0.11 nM and 0.133 nM, respectively. For the same molecule, the “IC90, IL-23-induced mouse IL-17 release from mouse splenocytes” value (from here on “IC90, IL-23-induced mouse IL-17 release”) in assay [10] is 0.88 nM; in assay [11], 0.761 nM. The Kd in assay [3], in assay [4], in [5] and in [6] was less than 0.015 nM in each case. In addition, the “Ratio of binding signal” value in assay [7] is 1.1; in assay [8], 1.3.

B4: Control Antibody 4 (anti-IL-23A monoclonal antibody) (IL-23A (1)) (antibody, V domains shown)
VH: QVQLVQSGAEVKKPGSSVKVSCKASGYTFTDQTIHWMRQAPGQGLEWIGYIYPRDDSPKYNENFKGKVTITADKSTSTAYMELSSLRSEDTAVYYCAIPDRSGYAWFIYWGQGTLVTVSS
VL: DIQMTQSPSSLSASVGDRVTITCKASRDVAIAVAWYQQKPGKVPKLLIYWASTRHTGVPSRFSGSGSRTDFTLTISSLQPEDVADYFCHQYSSYPFTFGSGTKLEIK
As for B4, in assay [9], the “IC50, STAT3-luciferase reporter in DB lymphoblast B cells” value worked out at 0.079 nM and the “IC90, STAT3-luciferase reporter in DB lymphoblast B cells” value came to 0.634 nM. Besides, in assay [10], the “IC50, IL-23-induced mouse IL-17 release” value was determined as 0.064 nM and the “IC90, IL-23-induced mouse IL-17 release” value turned out to be 0.331 nM. In [11], the “IC50, IL-23-induced mouse IL-17 release” value amounted to 0.084 nM and the “IC90, IL-23-induced mouse IL-17 release” value is 0.366 nM.

By Kd is commonly meant a measure of binding affinity in units of concentration. Low values mean a tighter complex, high ones a looser complex.
